Among the data in PMC10965072 are proteolytic activity of recombinant mCCP1 (TF tag removed) on a fluorescein-labeled casein substrate after pre-treatment with 0.5 μM GST-NIa-Pro, against GST values, retold here.

The target in the experiment is TF-mCCP1 (maize (inbred line B73)).
Chain of TF-mCCP1 (maize (inbred line B73)) (Q10716 137-371): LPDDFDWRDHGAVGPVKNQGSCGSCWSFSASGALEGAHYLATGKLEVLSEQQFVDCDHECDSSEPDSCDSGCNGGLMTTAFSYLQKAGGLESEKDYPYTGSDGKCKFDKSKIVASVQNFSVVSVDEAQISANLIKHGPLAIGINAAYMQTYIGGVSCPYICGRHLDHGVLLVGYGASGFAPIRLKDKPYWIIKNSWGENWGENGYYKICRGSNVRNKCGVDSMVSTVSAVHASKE

With GST-NIa-Pro (enzyme), the proteolytic activity of recombinant mCCP1 (TF tag removed) on a fluorescein-labeled casein substrate after pre-treatment with 0.5 μM GST-NIa-Pro, against GST stood at 72 % decrease.
